Experiment: label from the status in PepcDB records
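Further: failed if final PepcDB status was selected cloned or expressed and not failed if soluble or beyond.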

| Sequence | protein production |
| --- | --- |
| MKKIFYISLGFISLGIGIAGIVLPVVPTTPLVLLSAFCFSRSSEKFDIWLRQTKVYKYYAADFVESRSIAPARKKSMIWQIYILMGISIYFAPLMWLKLGLLIGTIVGTYVLFYVVPDKIDE | failed |
| MSDAHKSDLYLVLVTLLAAIGWMLSKEAVLMMPPLMFMAARFLIAGAFLALLALPSLLRLSRDQILRSLGVGFVFGIAMTCWIMGLYHTDSMGEGAFLTSLGVVIVPIIARTVFGEQQPLSTWLAIPIAVAGLALLSLENGFRPDPGQLYFVLAATIFALYFTLNTRAANQRIVVDKQGKTVEKKKVPALPLTAIALLTVGTVTLAESAISERWTHILTNPEPMLYVWVLASALIATAARFLLQTYAQSLSVNSHGVVILVLEPVWVAVFAVAWFGETMTLLQIAGCALIFAALLVNRWNALSRAIKALMKAKNPRQRG | failed |
| MSKPLYVFDMDETLINADCAMIWNAFLVEKGIATQPNFIEEDQRLMALYAEGKMDMEDYLEFCMAPLADMPIAHVLMLVEECVEHHILPKQFEQSKTLIAQLDRDDIDMVIISASVTFLVEAVGRRLGIPVALGIDLVEKHGSYSAEIAGVPSYREGKVIRLKAWLDAQPESYSEVHFYTDSINDLPLCEYADYAYLVNPCPQLKARADKANWTLLRWN | failed |
| MTIKQTDNINDDDLVYSNATDLPVGVKKSPKMSPTARVGLLVFGVIAAVGWGAIAFSRGETINSVWLVLAAVGSYIIAFSFYARLIEYKVVKPKDQRATPAEYVNDGKDYVPTDRRVLFGHHFAAIAGAGPLVGPVMAAQMGYLPGTLWIILGVIFAGAVQDYLVLWVSTRRRGRSLGQMVRDEMGTVGGAAGILATISIMIIIIAVLALIVVNALADSPWGVFSITMTIPIALFMGVYLRYLRPGRVTEVSIIGVALLLLAIVAGGWVADTSWGVEWFTWSKTTLALALIGYGIMAAILPVWLLLAPRDYLSTFMKIGVIGLLAVGILFARPEVQMPSVTSFALEGNGPVFSGSLFPFLFITIACGALSGFHALISSGTTPKLVEKESQMRMLGYGGMLMESFVAMMALITAVILDRHLYFSMNAPLALTGGDPATAAEWVNSIGLTGADITPEQLSEAAESVGESTVISRTGGAPTLAFGMSEILSGFIGGAGMKAFWYHFAIMFEALFILTTVDAGTRVARFMMTDTLGNVPGLRRFKDPSWTVGNWISTVFVCALWGAILLMGVTDPLGGINVLFPLFGIANQLLAAIALALVLVVVVKKGLYKWAWIPAVPLAWDLIVTMTASWQKIFHSDPAIGYWAQNANFRDAKSQGLTEFGAAKSPEAIDAVIRNTMIQGILSILFAVLVLVVVGAAIAVCIKSIRARAAGTPLETTEEPDTESEFFAPTGFLASSRDKEVQAMWDERYPGGAPVSSGGH | not failed |
| MICKKLIQTILLGFAMCFYLLLGAGLNPTLAATLTQVESISQPRMQTLSEPRNLESGVDSFLTSIPAGYYTIATVEELKSLLKKSQPMLVDVREASEYRAGHIPNAINIPLRTLSQNLNQIPRTRPVVLYCSSGYRSAMGVMTLHLLGYENVQGFPPSFAGWKNAKEAMTYGRSKTIAS | failed |
| MKTDLIYGVEDRPPFKDALFAALQHLLAIFVAIITPPLIIASALKLDVEKTSFLVSMSLFASGVSTFIQCRRIGPIGAKLLCIQGTSFSFIGPIIATGLVGGLPLIFGSCIAAAPIEMVVSRTFKYLRNIITPLVSGIVVLLIGLSLIKVGIVSCGGGYSAMDDGSFGSWENLSIAALVLLSVLFFNRCKNKYLRMSSIVFGLCLGYGLAFALGKVNMSALNVEMLMSFNIPQPFKYGIDFNISSFIAIGLVYLITAIEATGDVTANSMISGLPIEGDSYLKRVSGGVMADGFNSLLAGIFNSFPNSIFAQNNGIIQLTGVASRYVGYYIAAMLVLLGLFPIVGAIFSLMPDPVLGGATLLMFGTVAAAGIRIVSSQEIGRKETLVLAVSLSLGLGVELMPDVLKQAPEAIRSIFSSGITTGGLTAIVANMVIRVK | not failed |
| MTRPIGIYEKATPKHFNWLERLQFAKELGFDFVELSIDESDERLARLEWSKEERLELVKAIFETGVRVPTITFSGHRRFPMGSNNPEKEARAMDMMKKCIVFAQDIGIRNIQLAGYDVYYEEKSPETRARFIKNLRQACTWAEEAQVILSIEIMDDPFMNSIEKYLAVEKEIDSPYLFVYPDTGNVSAWHNDLWSEFYNGHRSIAALHIKDTYAVTETSKGQFRDVPFGQGCVDWEEMFAVIKKTNYNGPFLIEMWSENCETVEETRAAIKEAQDFLYPLMEKTGVK | failed |
| MFSPQASAAYDDLHEGYATYTGSGYSGGAFLLDPIPSDMEITAINPADLNYGGVKAALAGSYLEVEGPKGKTTVYVTDLYPEGARGALDLSPNAFRKIGNMKDGKINIKWRVVKAPITGNFTYRIKEGSSRWWAAIQVRNHKYPVMKMEYEKDGKWINMEKMDYNHFVSTNLGTGSLKVRMTDIRGKVVKDTIPKLPESGTSKAYTVPGHVQFPELEHHHHHH | not failed |
| MKINKELYSIALVLTVLFFVFSILISSVASAAQVTRIGSGSDPAIYGNKIVWTSGGVIHLYDLTSKTGTTVSSSAASHPAIYGNKLVWHDKSSGVPRLTVYDIPSGARSYITQDVGNYSFPAIYGNRIVWSANYNRSSYSYNVYMRDISTSTQVWIAQGENPEIYETKITYGYDDDDGRNIAVYDVNTKETINVHHSSQVFNPHMYGNKVIWSNFYTRSGFIQMYDLVAKKAIDVTSDNTGNTLYGSDTIDAGDDTGTHIDISGDEIVYSKSGDDQFGYAGVYVYDIPSAKSTPVYIYPRGTHTTPDIYNDTIVWGIDSSYGGVNDTGIYICDLSVTNTLPPVAEFTANTTYGAAPLVVLFTDASTGGVPTSWIWDFGHGIDSKHVMNATHTFTKPGNYTISLTAGNDAGNNKVMKPNYIVVTNPFPVANFSSNVTHGYPPLSIQFTDLSQNATGWNWDFGDGSNSTQRSPVHEYADSGIYSVNLTAINENGTDSKLTTITVMQLVGVGPYAYITNSGDNNVSVIDTTTNKVTAMIPVGNYPMGVAVTLDGKKVYVTNFFGRTISVIDATKNKVTATIPLGNSPRGVAVSPDGKRVYVPHHEVGNPSNNTTLIIDTDTNEVEATVLVGEVPFGVAVTLDGKKVYVTNLRDKTVSVIDTATNTVIATIPVGDDPCGVAISPDGKKVYVGNRGDSTVSIIDTATNTVTATVDLENSPYGIVVNPTGTKVYVAGTKKAYAAGTVDGFVSVIDTATNKVTATIPVGNSPFGVAVTPDGSKVYVANQLRDTVSVIDTSTNKVTATMNVGRNPNSFGQFIGSLQAQPIFPVANFSSNVTEGYAPLTVKFNDMSQKATSRIWDFNGDGQLDSSNINPVYIYANPGTYTVNLTVSNKNGTDSKTAAINVLTPSSSSGVSSHSSSSGG | failed |
| MAAAGEEYSSDKIEERSLAAIDSMIDPDISGPMRHIVVKAIHAAGDFAIAPLIRYSDGFFKSMLAKLKEGCTIICDSEMVRAGIYSRPVLERNRVVCYLNDVRSKEMADVNGITRSAAGIRIAMQDHRNSVIVIGNAPTALLEAMRMIEENGWYDIPIVGIPVGFINASKAKEGLVSSHIEYISVEGHRGGSPIAASIVNGFGRFLA | not failed |
| PQEKLKLLAFTGTKGKTTAAYFAYHMLKESYKPAMFSTMNTTLDGKTFFKSQLTTPESLDLFAMMAECVTNGMTHLIMEVSSQAYLVDRVYGLTFDVGVFLNISPDHIGPIEHPTFEDYFYHKRLLMENSRAVVINSGMDHFSFLADQVADQEHVFYGPLSDNQITTSQAFSFEAKGQLAGHYDIQLIGHFNQENAMAAGLACLRLGASLADIQKGIAKTRVPGR | failed |
| MTSYTAAGLGELVQRDGALVNGRIYTDPEIFGLEMERIFSKVWVYVGHESQVANPGDYMTGYLAQQPIILTRDRAGQIHVLFNRCTHRGAKIVNRERGNERLLTCMYHGWAFGHDGELRGIPLKKDFPAEAVEPCKASLARPPRVDAYRGFIFASLNPDVEPLRDYLGAAASGIDEIVDRAPAGTIRLSAGCHRYIYEGNWKLQTDNLGDMYHPVACHSSTVDEDGKQFKRRPGDEGGRAAFLGADGEPIVIQTGVRGFLRGHSSEASLFGANDIVKEETRQRGGIIDEYRSLLIEQHGVEKTDEILKNRRHSMTLFPNLDVLMVQTSVRVVIPLAYNRTEVRIYPVHLDGAPDELNRQIIKFLNITHSAASFIQTDDLEAFKRQQEGLAARSPQWLIVARGQGSEIDEGNGAYFGPRASEVGQRMRHQYWRELMMAE | failed |
| MTCPEQAIEHDDMNVVVDVEKCKFCMDCIPVCPTGSIDNWRVVDTPYSLEDQYGWMDLPPQEDVAGDEAGLEALDDAMAALLAEAHKGAGGKSRAPATASKPTINLYTLGKPAEARVTGNYRLTAESSDSDVRHIILDFGGQPFPVLEGQSIGIIPPGTDEAGNPHLPRLYSVSSPRDGERPNFNNLSLTVKREPHGICSNHVCDLKPGDTVRVTGPFGATFLMPSDPAAHLLMICTGTGSAPFRAFTMRRQRESPKLRNSLTLVFGARRPQELPYFGPLAKVPEQFMAKHFAFSRQDGAPKHYVQDRLRAEADRVGELLADPLTHVYVCGLKAMEQGVEEAFKDIARAQGIDWTGLRDRMRDEGRYHVETY | failed |
| MGNGLMSKKKKKKNNKYKKKRPNVSRNCDWSKFCSDVLRKIFETLKSPIDSHRAFARISIQFGKHARTSLHVHGDSYTKVILPPSGNCLLMVDRRLKFYILNLLTRTTINLPSMSLIRGGQVFFKPQNEWSNDSGCFFGPSRNGNVSYDFDSVEWKNSVAVLWINETTGDYVVAWTFIQHYLFFYKSGYWSWCNLNHNGKSLVVFDMACENNKLYLYTANHHIRIFDFSGAYPMEKKTENPYWKYLFNAVEEPWEYVWKRKIAIQKSSGEVLIILSLKQVFYEAERLLFYIFKMNLESFKWERVYSLGDEMLVFGQGVTIPTALKDLGDGIKSDSIYFVDKDVWPDHQDHDRRVSNCGVFNIATSKIKWPTKKYRSVNETQWFVLGVAY | failed |
| MAMSVKTISPIEAHRLVTGGRAVLVDVRERHEIAREHIDGAIELPLTGFKHGDLGAAHGRKAIFFCHSGGRTRMYAGQIDAKARGVCEPYVLGGGILAWRRAGFPTVQGPKPPSLFQRLFGRKPAD | failed |
| MIMFNYQQTSQSCVKCGKCIPSCTIYNIHPDEVTSPRGFIDLLGAYQRGELELDKNAKDIFEKCFLCTNCTYVCPNLLPTDQVIENVRAEIAQKFGIAWFKRAYFFLLRNRWLEHHHHHH | failed |
| VADASDPIRPLVEALNAEAPLKLWSVLVTCLGDVSRDGVIEVSGVALSSFVERMGLQPQAMRVALHRLKRDGWVESRRLGRVGFHRLSDSALTQTRAVAGRIYGPGAGPAPWHLAGMPPDAPDGLSLLPDTLSATPISRRFALICGPLEDVPEDWLLTAPSGRGLPVWVQDVVVEAGCEAEFKALERTLAQIDKVPDTRLERFTLRVLVLHAWRRLILRSSPAAEAALGGARAEISCRARVHQLLDQLGSVEPDWDLPATEDAAS | not failed |
| MEEMFETSLKVIEQSGWLAPVLFIMLHVFRQVFFIPVIIICLVGGYLFGSFYGSLYSIIGLTATSALFYGIVHGFPRFLAKVSQLKKRFLGEKESLSLPQMMLLRIVPFIHFHLVSLYVMETRPTFREYMKISFYLSMPPAIIYTLFGDMIHELPLVGTVVFALFIGLLCFMARRKEQRYAWQEFFKA | failed |
| MECPFVSVVVGIRNEERYIEECIESLLRLDYPQDSYEIIIVDGMSTDRTRELVQKYPVRLLLNERKNVAAARNLGVQNSMGDFVAFTDGDCKADPLWLKTLVTEMKNAPEDVVCVGGPNLIFDTDPVFGRVVGHAQETFLGSGGSAQSKNSLKKHYVSSLPNCNAMYKKNTIIEAGYFDERFVVGQDGDLNYRINKKGYKFLYIPEAIVLHHRRGTLKSFSVRMFKYGMWMGELFKKHGELVRWYAILPSVAILFSVFSLIISPVYTTPIIVLLLMGFLYLILVFIASIQVIFKMKSKYGLYALVVIPVQHITYGMGFLYSFANSLYKSKGVSSSIVQN | failed |
| SDFSRNLYDIGEQLDSEDLASLKFLSLDYIPQRKQEPIKDALMLFQRLQEKRMLEESNLSFLKELLFRINRLDLLITYLNTRKEEMERELQTPGRAQISAYRVMLYQISEEVSRSELRSFKFLLQEEISKCKLDDDMNLLDIFIEMEKRVILGEGKLDILKRVCAQINKSLLKIINDYEEFSKGEELCGVMTISDSPREQDSESQTLDKVYQMKSKPRGYCLIINNHNFAKAREKVPKLHSIRDRNGTHLDAGSHSVAQAGVQWCDLGSLQPPPPWFG | not failed |
